Measured values reported in patent US20100297703A1 (published 2010).

Tests used:
Assay in all cases: anti-FLAG purification of YoeB-3×FLAG from cell surface extract, SDS-PAGE band integration of the co-purified protein
CwlF protein = biological target: T1, CwlF protein (Bacillus subtilis, UniProt P54421 26-334)
T1 construct: Endogenous protein of the WE1YoeB3FL strain, co-purified with YoeB-3×FLAG
Description: (§1) After the pre-culture, the pre-cultured strain was inoculated in 50 ml of LB liquid medium to bring the OD₆₀₀ value to 0.01, and main culture was conducted until the OD₆₀₀ value reached 2.0. After the completion of the culture, the culture solution was centrifuged at 10,000 rpm for 10 minutes. The supernatant was removed and the precipitate was washed with 25 mM Tris-HCl (pH 7.2). The washed precipitate was suspended in 3M LiCl (25 mM Tris-HCl, pH 7.2) to a density of 10 μl/OD, and the suspension was allowed to stand on ice for 20 minutes. Thereafter, centrifugation was carried out at 4° C. and 10,000 rpm for 10 minutes. The supernatant was recovered, TCA (trichloroacetic acid) was added to a final concentration of 5%, the mixture was thoroughly mixed, and the resulting suspension was allowed to stand on ice for 60 minutes. Thereafter, centrifugation was carried out at 4° C. and 15,000 rpm for 5 minutes. The supernatant was removed, and the precipitate was rinsed with 70% ethanol to thoroughly remove TCA. Thus, outer surface proteins were extracted from the WE1YoeB3FL strain and the WE1E3FL strain, respectively.
(§2) The mixture was mildly (8 rpm) agitated at 4° C. for 1 hour. Thereafter, centrifugation was carried out at 5,000 rpm for 1 minute. The supernatant was removed while carefully refraining from suctioning the precipitated gel. Thereafter, 500 μl of TBS buffer was added to prepare a suspension. Thereafter, the gel was transferred to the Spin Column (Micro Bio Spin Chromatography Columns (BIO RAD)), and the gel was trapped via centrifugation at 1,000 g for 30 seconds. Thereafter, the resultant was washed three times with 500 μl of TBS buffer. Subsequently, 100 μl of Glycine HCl elution buffer (0.1M glycine-HCl) was sequentially added thereto and thoroughly agitated. Elution was carried out 1 minute later at 1,000 g for 30 seconds, and this procedure was repeated two times. The products were combined to prepare an eluted solution.
(§3) Subsequently, the band pattern of the resulting eluted solution was inspected via SDS-PAGE. Electrophoresis was carried out by charging proteins in amounts corresponding to the amount extracted from the cells (OD₆₀₀=200) to the relevant lanes.

CwlE protein = biological target: T2, CwlE protein (Bacillus subtilis, UniProt O07532 27-488)
T2 construct: Endogenous protein of the WE1YoeB3FL strain, co-purified with YoeB-3×FLAG
Description: as §1, §2, §3

YojL protein = YojL protein (Bacillus subtilis, UniProt O31852 27-414)
Description: as §1, §2, §3

T1 sequence (P54421 26-334 limits assumed): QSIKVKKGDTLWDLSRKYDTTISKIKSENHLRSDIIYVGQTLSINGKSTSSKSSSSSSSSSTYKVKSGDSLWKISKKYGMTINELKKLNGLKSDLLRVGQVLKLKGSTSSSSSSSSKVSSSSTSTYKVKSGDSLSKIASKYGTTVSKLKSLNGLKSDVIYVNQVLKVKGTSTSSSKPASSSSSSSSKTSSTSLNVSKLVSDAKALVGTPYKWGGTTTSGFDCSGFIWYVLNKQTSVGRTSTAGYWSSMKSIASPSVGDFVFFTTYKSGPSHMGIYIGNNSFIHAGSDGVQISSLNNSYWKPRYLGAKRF
T2 sequence (O07532 27-488 limits assumed): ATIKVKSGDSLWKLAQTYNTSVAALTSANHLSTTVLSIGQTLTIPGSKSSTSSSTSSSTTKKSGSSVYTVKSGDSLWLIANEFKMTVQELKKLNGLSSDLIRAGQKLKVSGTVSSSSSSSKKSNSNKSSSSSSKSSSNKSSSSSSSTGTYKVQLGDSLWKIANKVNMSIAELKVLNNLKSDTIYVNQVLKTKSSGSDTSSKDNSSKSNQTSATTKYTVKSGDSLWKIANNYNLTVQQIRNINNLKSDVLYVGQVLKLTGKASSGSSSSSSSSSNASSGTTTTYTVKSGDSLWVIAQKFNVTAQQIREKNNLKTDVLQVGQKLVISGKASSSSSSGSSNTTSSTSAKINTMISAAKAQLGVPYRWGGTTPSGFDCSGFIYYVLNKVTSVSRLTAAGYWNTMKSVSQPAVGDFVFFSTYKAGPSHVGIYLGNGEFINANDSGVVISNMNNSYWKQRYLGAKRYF

Integrated value (CwlF protein): 1250
Integrated value/Molecular weight (CwlF protein): 0.03
Proportion relative to YoeB (1) (CwlF protein): 0.05
Integrated value (CwlE protein): 30100
Integrated value/Molecular weight (CwlE protein): 0.59
Proportion relative to YoeB (1) (CwlE protein): 0.89
Integrated value (YojL protein): 989
Integrated value/Molecular weight (YojL protein): 0.02
Proportion relative to YoeB (1) (YojL protein): 0.03
B1: YoeB-3×FLAG protein (other)
chain: KNTSGDLSQKQALQLALSAREHFWNTMSGHNPKVKKAVCPSGTFEYQNLQYVYMCSDLGTKAKAVNYLTPIFTKTAIEKGFKDYHFTVSKGKLAVPIGDGDNLLNWKKSTAKLISKKGSTITYEFTVPTLDGSPSAKRKVTFVKENKKWKVNQFDAVI
notes: Expressed in B. subtilis WE1 from pCA3FLYoeB with IPTG, extracted from the cell surface with LiCl and purified on anti-FLAG M2 gel; also called YoeB protein (bait from the WE1YoeB3FL strain); not shown: 3×FLAG tag
